The record followed here is patent publication US20210403575A1 (SHANGHAI YICHEN BIOMED, published 2021).

The experiment deals with T1, hEGFR-hIGg1Fc (SinoBiological) (human, UniProt P00533 25-645).
T1 construct: Bought reagent; also called human EGFR; human EGFR antigen; not shown: human IgG1 Fc
In words: ELISA, coated hEGFR-hIgG1Fc.

B1: aPDL1ScFv-L1-aEGFRL (bispecific antibody)
heavy: QVQLQESGPGLVKPSETLSLTCTVSGGSVSSGDYYWTWIRQSPGKGLEWIGHIYYSGNTNYNPSLKSRLTISIDTSKTQFSLKLSSVTAADTAIYYCVRDRVTGAFDIWGQGTMVTVSSASTKGPSVFPLAPSSKSTSGGTAALGCLVKDYFPEPVTVSWNSGALTSGVHTFPAVLQSSGLYSLSSVVTVPSSSLGTQTYICNVNHKPSNTKVDKKVEPKSCDKTHTCPPCPAPPVAGPSVFLFPPKPKDTLMISRTPEVTCVVVDVSHEDPEVKFNWYVDGVEVHNAKTKPREEQYNSTYRVVSVLTVLHQDWLNGKEYKCKVSNKGLPSSIEKTISKAKGQPREPQVYTLPPSRDELTKNQVSLTCLVKGFYPSDIAVEWESNGQPENNYKTTPPVLDSDGSFFLYSKLTVDKSRWQQGNVFSCSVMHEALHNHYTQKSLSLSPGK
light: not shown
notes: also called aPDL1 scfv-aEGFR fusion
On to B1, for which the binding result is recorded as “binds”.

B2: aPDL1ScFv-L2-aEGFRL (bispecific antibody)
heavy: QVQLQESGPGLVKPSETLSLTCTVSGGSVSSGDYYWTWIRQSPGKGLEWIGHIYYSGNTNYNPSLKSRLTISIDTSKTQFSLKLSSVTAADTAIYYCVRDRVTGAFDIWGQGTMVTVSSASTKGPSVFPLAPSSKSTSGGTAALGCLVKDYFPEPVTVSWNSGALTSGVHTFPAVLQSSGLYSLSSVVTVPSSSLGTQTYICNVNHKPSNTKVDKKVEPKSCDKTHTCPPCPAPPVAGPSVFLFPPKPKDTLMISRTPEVTCVVVDVSHEDPEVKFNWYVDGVEVHNAKTKPREEQYNSTYRVVSVLTVLHQDWLNGKEYKCKVSNKGLPSSIEKTISKAKGQPREPQVYTLPPSRDELTKNQVSLTCLVKGFYPSDIAVEWESNGQPENNYKTTPPVLDSDGSFFLYSKLTVDKSRWQQGNVFSCSVMHEALHNHYTQKSLSLSPGK
light: not shown
notes: as for B1
Consider B2, for which the binding result was “binds”.
